This is an account of results in patent publication US20170189508A1.

The target in the assay is HLA-A*02 (human). Briefly: UV peptide exchange + b2m ELISA, exchange yield grade.

B1: … (SEQ ID NO: 45) (peptide)
peptide: SLTEVSLPL
Take B1: the peptide exchange yield was 50 to 75%.
